The target of test [1] is CHO细胞重组表达的人PD-1胞外段全长蛋白(第20-170位氨基酸) (human) (UniProt Q15116). Nature of the test: SPR, BIACORE3000, 5L12 coupled to the chip.
For test [2], the target named is T1, 化学合成的人PD-1第75-82位氨基酸(序列QTDKLAAF) (human).
T1 peptide: QTDKLAAF
As to the kind of experiment: SPR, BIACORE3000, 5L12 coupled to the chip.

Test [3] has as its target T2, 表面表达人PD-1的基因重组293T细胞上的人PD-1 (human, UniProt Q15116 25-288).
T2 construct: whole, on cells; also called 2H-3细胞表面PD-1; 表面表达PD-1的293T细胞
Nature of the test: flow cytometry competition; displacement of FITC-PD-L1 from PD-1-expressing 293T cells.

T2 sequence (Q15116 25-288): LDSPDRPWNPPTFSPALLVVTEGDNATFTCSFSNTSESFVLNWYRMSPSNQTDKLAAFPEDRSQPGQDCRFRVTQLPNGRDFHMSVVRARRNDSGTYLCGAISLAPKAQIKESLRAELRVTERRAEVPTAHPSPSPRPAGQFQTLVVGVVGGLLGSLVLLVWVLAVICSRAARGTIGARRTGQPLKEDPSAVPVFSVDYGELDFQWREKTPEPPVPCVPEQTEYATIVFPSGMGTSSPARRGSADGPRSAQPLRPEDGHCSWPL

B1: 全人源抗PD-1单克隆抗体5L12 (antibody, human IgG4 S228P, kappa, V domains shown)
VH: EVQLVESGGGLVQPGGSLRLSCAASGYTFTSYWMLWVRQAPGKGLEWVSYIYPSTGYTEYSENFKDRFTISRDNSKNTLYLQMNSLRAEDTAVYYCARGVRYYFDYWGQGTLVTVSS
VL: DIQMTQSPSSLSASVGDRVTITCKSSQSLLDSSTRKNYLAWYQQKPGKAPKLLIYWASTRESGVPSRFSGSGSGTDFTLTISSLQPEDFATYYCKQSYNLWTFGQGTKVEIKR
notes: also called FITC-5L12
In test [1], B1 yielded a dissociation constant (Kd) of 0.01 nM. In test [2], the Kd is ~0.01 nM. Besides, in test [3], the half-maximal inhibitory concentration (IC50) is ~0.03 µg/mL, the “IC50 ratio against Nivolumab” value was 0.05 fold of the IC50 of Nivolumab and the “IC50 ratio against Pembrolizumab” value is 0.5 fold of the IC50 of Pembrolizumab.

Source of the values: patent CN109929036A (TAIZHOU MAIBO TAIKE PHARMACEUTICAL CO LTD, dated 2019).
